Biological target: T1, recombinant SARS-CoV-2 S1 protein expressed from insect (Sf9) cells (S1-His, SinoBiological, Cat. No. … (SARS-CoV-2, UniProt P0DTC2 16-685))
T1 construct: also called S1 protein from insect (Sf9) cells
Test: ELISA, coated S1 from Sf9 cells, HRP-conjugated lectin 10 ug/mL

B1: Maclura pomifera lectin (MPA; Cat. No: H-3901-1) (other)
chain 1: GVTFDDGAYTGIREINFEYNSETAIGGLRVTYDLNGMPFVAEDHKSFITGFKPVKISLEFPSEYIVEVSGYVGKVEGYTVIRSLTFKTNKQTYGPYGVTNGTPFSLPIENGLIVGFKGSIGYWLDYFSIYLSL
chain 2: GRNGKSQSIIVGPWGDRVTN
- mean fold increase of OD450: 7.51 fold
